Data from PMC6161111, “Design, Synthesis, In Vitro, and Initial In Vivo Evaluation of Heterobivalent Peptidic Ligands Targeting Both NPY(Y1)- and GRP-Receptors—An Improvement for Breast Cancer Imaging?” (Pharmaceuticals, 2018).
Where two headings read alike, the source gives them in different places.

Assays:
[1] = Determination of radiotracer lipophilicity (logD, phosphate buffer/1-octanol); assay type: physicochemical; conditions: phosphate buffer (0.05 M, pH 7.4) / 1-octanol, six independent experiments
Protocol: Determination of radiotracer lipophilicity. The heterobivalent ligands (22–26) as well as the monomeric reference compounds (27 and 28) were radiolabeled with ^68Ga as described before and 2 µL of the product solution (~65 pmol of the respective radioligand) were added to a mixture of phosphate buffer (0.05 M, pH 7.4, 800 µL) and 1-octanol (800 µL) and incubated for 5 min at ambient temperature under vigorous shaking. Both phases were separated by centrifugation and 100 µL of each phase were measured for radioactivity in a gamma-counter. […] (cpm = counts per minute), cpmw = activity in the aqueous phase [cpm]. These experiments were performed six times independently.

[2] = Stability of the 68Ga-labeled ligands in human serum; assay type: in vitro ADME; conditions: after 90 min incubation at 37 °C, radio-HPLC
Protocol: Determination of the stability of the ligands in human serum. The heterobivalent ligands (22–26) as well as the monomeric reference compounds (27 and 28) were radiolabeled with ^68Ga as described before and 125 µL of the product solution were added to 500 µL of human serum and incubated at 37 °C. At defined time-points of 5, 15, 30, 60 and 90 min, aliquots of 75 µL of the mixture were added to 75 µL of ethanol and the precipitation of serum proteins was enhanced by ice-cooling for 2 min. After centrifugation, supernatant and precipitate were measured for radioactivity and the supernatant was analyzed by analytical radio-HPLC. These experiments were performed thrice.

T-47D cells = assay: In vitro cell uptake (internalization) study in T-47D cells; assay type: cell-based, human; conditions: after 4 h, % of total added activity
Protocol: Cell culture. All cell lines were grown in suitable culture medium at 37 °C in a humidified CO2 (5%) atmosphere. The human breast cancer cell lines T-47D, MDA-MB-231 and MCF-7 were grown in Dulbecco’s Modified Eagle Medium (DMEM), supplemented with 10% (v/v) fetal calf serum (FCS) and 1% (v/v) L-Glutamine. For a high expression of the NPY(Y1) receptor on T-47D cells, the medium for this cell line was further supplemented with 0.15% (w/v) β-estradiol. The BT-474 and PC-3 cell lines were grown in RPMI-1640 medium, also supplemented with 10% (v/v) fetal calf serum (FCS) and 1% (v/v) L-Glutamine.
Internalization studies. Cells (T-47D, MDA-MB-231, MCF-7, BT-474 and PC-3, 1.5 × 10^6 cells per well) were seeded into 6-well plates and incubated overnight at 37 °C in a humidified CO2 (5%) atmosphere. The next day, the medium was removed and the cells were washed twice with the respective medium without supplements (ice-cold, 1 mL) and incubated with 3.7–4.0 kBq (0.37–4.0 pmol) of the respective ^68Ga-radiolabeled ligand [^68Ga]22−[^68Ga]26, [^68Ga]27 or [^68Ga]28 (in 1.5 mL medium, containing 0.5% (w/v) BSA) for defined time-points of 1, 2, 3 or 4 h at 37 °C in a humidified CO2 (5%) atmosphere. A 1000-fold excess of the respective peptide (3 or 4) was used for blocking to determine the non-specific cell uptake. At each time point, the medium was removed and the cells were washed twice with the respective medium without supplements (ice-cold, 1 mL). Cells were treated twice with 1 mL glycine buffer (ice-cold, 50 mM glycine, 100 mM NaCl, pH 2.8) for 5 min at room temperature, followed by 2 mL NaOH solution (1 M) for 10 min at 37 °C. The supernatants were collected and the radioactivity measured in a gamma counter. The internalized and surface bound activity was expressed as percentage of measured to total added activity. Each data point was generated thrice in triplicates.

T-47D tumor = assay: Small animal PET/CT imaging in T-47D tumor-bearing mice; assay type: in vivo; conditions: PET imaging, i.v. 5.5-8.0 MBq, n = 4
Protocol: In vivo experiments. All animal experiments were performed in compliance with the German animal protection laws and protocols of the local committee (Regierungspräsidium Karlsruhe, approval number: 35-9185.81/G-206/15). 20, six week old female immunodeficient Fox Chase SCID (CB17/Icr-Prkdc^scid/IcrIcoCrl) mice with an average weight of 20 g were subcutaneously implanted with 17β-estradiol pellets (0.36 mg/60 days). 4 days later, the tumors were induced by subcutaneous inoculation of 5 × 10^6 T-47D cells into the left flank of the […]. After induction, the tumors were allowed to grow for 8–10 weeks and reached a diameter of about 0.5 cm. […] After the end of the diagnostic scan, the animals were sacrificed, the organs were collected and measured in a gamma-counter.
The dynamic PET images were reconstructed using the Albira Suite Reconstructor (Bruker) with an iterative dynamic reconstruction with 12 iterations using an 2D-Maximum-Likelihood Expectation-Maximization (MLEM) algorithm and a cubic image voxel size of 0.5 mm after scatter and decay correction. […] The reconstructed PET data were manually fused with the CT images using PMOD 3.6.1.1. and analyzed. Volumes of interest (VOIs) were defined for the quantification of tracer accumulation in heart, liver, kidneys, tumor, and muscle. The results for each VOI were calculated as SUV (kBq/cm^3) averaged for each time frame.

[3] = Ex vivo biodistribution in T-47D tumor-bearing mice; conditions: female, Fox Chase SCID (CB17/Icr-Prkdc^scid/IcrIcoCrl), mouse, in vivo, iv, total radioactivity, ex vivo biodistribution at 130 min p.i.
Protocol: (§1) In vivo experiments. All animal experiments were performed in compliance with the German animal protection laws and protocols of the local committee (Regierungspräsidium Karlsruhe, approval number: 35-9185.81/G-206/15). 20, six week old female immunodeficient Fox Chase SCID (CB17/Icr-Prkdc^scid/IcrIcoCrl) mice with an average weight of 20 g were subcutaneously implanted with 17β-estradiol pellets (0.36 mg/60 days). 4 days later, the tumors were induced by subcutaneous inoculation of 5 × 10^6 T-47D cells into the left flank of the […]. After induction, the tumors were allowed to grow for 8–10 weeks and reached a diameter of about 0.5 cm. For imaging, the animals were anaesthetized with isoflurane and injected with 5.5–8.0 MBq of the respective radioligand ([^68Ga]24, [^68Ga]24a or [^68Ga]24b) into the lateral tail vein. Dynamic PET images were acquired over 90 min and CT images were obtained within further 30 min. After the end of the diagnostic scan, the animals were sacrificed, the organs were collected and measured in a gamma-counter.

T-47D tumor-bearing mice = assay: as above; conditions: 130 min p.i.
Protocol: as §1

In the case of CCCC[C@H](NC(=O)[C@H](CCCNC(=N)N)NC(=O)[C@H](Cc1c[nH]c2ccccc12)NC(=O)[C@H](CCCCNC(=O)CON=Cc1ccc(C(=O)NCCOCCOCCOCCOCCC(=O)NCCCN(CCCNC(=O)CCOCCOCCOCCOCCNC(=O)c2ccc(C=NOCC(=O)NCCOCCOCCOCCOCCC(=O)N[C@@H](CCC(N)=O)C(=O)N[C@@H](Cc3c[nH]c4ccccc34)C(=O)N[C@@H](C)C(=O)N[C@H](C(=O)NCC(=O)N[C@@H](Cc3c[nH]cn3)C(=O)N[C@@H](CC(C)C)C(=O)N[C@@H](CCSC)C(N)=O)C(C)C)cc2)CC(=O)NCCOCCOCCOCCOCCC(=O)N[C@@H](CCCCNC(=O)CCC(C(=O)O)N2CCN(CC(=O)O)CCN(CC(=O)O)CC2)C(N)=O)cc1)NC(=O)[C@@H]1CCCN1C(=O)[C@H](CC(N)=O)NC(=O)[C@@H](N)[C@@H](C)CC)C(=O)N[C@@H](CCCNC(=N)N)C(=O)N[C@@H](Cc1ccc(O)cc1)C(N)=O (stereo partly shown) [[^68Ga]24, metal not drawn], the logD [1] is reported as -1.67 ± 0.086, the “degradation in human serum” value [2] is reported as “no observable fragmentation” and the specific cell uptake (T-47D cells) is reported as 50.1 ± 2.4%. The “tumor activity concentration at 85 min” value (T-47D tumor) was 122.03 ± 16.27 kBq/cm^3, the tissue to tissue ratio at 130 min ([3]; read-out: tumor-to-blood ratio (T / B)) was 2.72 ± 0.43 and the tissue to tissue ratio at 130 min ([3]; read-out: tumor-to-muscle ratio (T / M)) was 11.8 ± 1.83. It also gave an adrenal glands uptake (T-47D tumor-bearing mice; adrenal glands) of 3.57 ± 2.18 ID/g in %, a blood uptake (T-47D tumor-bearing mice; blood) of 1.13 ± 0.77 ID/g in % and a bone uptake (T-47D tumor-bearing mice; bone) of 0.26 ± 0.14 ID/g in %. It also gave a brain uptake (T-47D tumor-bearing mice; brain) of 0.11 ± 0.14 ID/g in %, a heart uptake (T-47D tumor-bearing mice; heart) of 0.52 ± 0.38 ID/g in % and a kidneys uptake (T-47D tumor-bearing mice; kidneys) of 34.79 ± 11.03 ID/g in %. It also gave a large intestines uptake (T-47D tumor-bearing mice; large intestines) of 1.80 ± 0.64 ID/g in %, a liver uptake (T-47D tumor-bearing mice; liver) of 10.02 ± 1.54 ID/g in % and a lung uptake (T-47D tumor-bearing mice; lung) of 0.62 ± 0.17 ID/g in %. The muscle uptake (T-47D tumor-bearing mice; muscle) was 0.26 ± 0.18 ID/g in %, the pancreas uptake (T-47D tumor-bearing mice; pancreas) was 10.54 ± 3.13 ID/g in % and the small intestines uptake (T-47D tumor-bearing mice; small intestines) was 1.49 ± 0.36 ID/g in %. It also gave a spleen uptake (T-47D tumor-bearing mice; spleen) of 1.32 ± 0.33 ID/g in %, a stomach uptake (T-47D tumor-bearing mice; stomach) of 1.47 ± 0.44 ID/g in % and a tail uptake (T-47D tumor-bearing mice; tail) of 1.30 ± 1.21 ID/g in %. The tumor uptake (T-47D tumor-bearing mice; tumor) was 3.07 ± 0.33 ID/g in %.
